B1: LINE1-mini (parent)
chain: GGCAGAGCUCAACACAGCGUGGCAAAGUGGCUGUGGCUAGACUGCC

Variants of: B1
Assay: self-cleavage, relative activity (ratio to wild type); higher = more cleavage; in vitro, sequencing; the parent is a self-cleaving ribozyme

Q: For G5C A6U, which self-cleavage is on record?
A: Its self-cleavage is 0.06.

Q: Which self-cleavage does the source give for C13U G19A here?
A: Its self-cleavage is 0.16.

Q: For G17C A39G, which self-cleavage is on record?
A: Its self-cleavage is 0.1.

Q: Which self-cleavage does the source give for U20C G21C here?
A: The self-cleavage was 0.39.

Q: Which self-cleavage does the source give for G1U C46A here?
A: Its self-cleavage is 0.53.

Q: For G5C U34A, which self-cleavage is on record?
A: The self-cleavage was 0.06.

Q: With A14U G19C as the variant, how does the self-cleavage read?
A: The self-cleavage was 0.15.

Q: With C13G G35A as the variant, how does the self-cleavage read?
A: The self-cleavage was 0.07.

Q: Which self-cleavage does the source give for A11C A24U here?
A: Its self-cleavage is 0.11.

Q: For U28A C31A, which self-cleavage is on record?
A: Its self-cleavage is 0.83.

Q: For G17U A26G, which self-cleavage is on record?
A: The self-cleavage was 0.1.

Q: Which self-cleavage does the source give for A11G U43A here?
A: Its self-cleavage is 0.01.

Q: For A39C U43C, which self-cleavage is on record?
A: The self-cleavage was 0.08.

Q: Which self-cleavage does the source give for C23U G33C here?
A: Its self-cleavage is 0.05.

Q: For G5U C15G, which self-cleavage is on record?
A: The self-cleavage was 0.09.

Q: For C10G A12G, which self-cleavage is on record?
A: The self-cleavage was 0.03.

Q: With A11G G30U as the variant, how does the self-cleavage read?
A: Its self-cleavage is 0.04.

Q: Which self-cleavage does the source give for G2C A16C here?
A: Its self-cleavage is 0.02.

Q: Which self-cleavage does the source give for G2U U32G here?
A: The self-cleavage was 0.03.

Q: With G35U C45A as the variant, how does the self-cleavage read?
A: Its self-cleavage is 0.12.

Q: With C8A U34C as the variant, how does the self-cleavage read?
A: The self-cleavage was 0.26.

Q: Which self-cleavage does the source give for C18A G19C here?
A: The self-cleavage was 1.27.

Q: Which self-cleavage does the source give for C13G G17U here?
A: Its self-cleavage is 0.06.

Q: For G7A G33U, which self-cleavage is on record?
A: Its self-cleavage is 0.18.

Q: Which self-cleavage does the source give for A4G G19A here?
A: Its self-cleavage is 0.95.

Q: With A16G G27U as the variant, how does the self-cleavage read?
A: Its self-cleavage is 0.68.

Q: Which self-cleavage does the source give for G1A A16G here?
A: The self-cleavage was 0.25.

Q: Which self-cleavage does the source give for A4U C18A here?
A: Its self-cleavage is 0.07.

Q: With U20G G36C as the variant, how does the self-cleavage read?
A: Its self-cleavage is 0.09.

Q: With A6C G44C as the variant, how does the self-cleavage read?
A: The self-cleavage was 0.24.

Q: Which self-cleavage does the source give for A4C U32G here?
A: The self-cleavage was 0.1.

Q: Which self-cleavage does the source give for A14U G27U here?
A: The self-cleavage was 0.29.

Q: With C13U G30U as the variant, how does the self-cleavage read?
A: The self-cleavage was 0.15.

Q: Which self-cleavage does the source give for C31A G36U here?
A: The self-cleavage was 0.12.

Q: Which self-cleavage does the source give for C31U G35A here?
A: Its self-cleavage is 0.03.

Q: With A6U G36U as the variant, how does the self-cleavage read?
A: The self-cleavage was 0.08.

Q: With A14U U34A as the variant, how does the self-cleavage read?
A: Its self-cleavage is 0.82.

Q: For A11U C42G, which self-cleavage is on record?
A: The self-cleavage was 0.02.

Q: For C3G G40A, which self-cleavage is on record?
A: The self-cleavage was 0.39.

Q: Which self-cleavage does the source give for C10A A11C here?
A: Its self-cleavage is 0.02.

Q: Which self-cleavage does the source give for G1U G33C here?
A: Its self-cleavage is 0.03.

Q: Which self-cleavage does the source give for G29U A39G here?
A: The self-cleavage was 0.06.

Q: With C3U C13U as the variant, how does the self-cleavage read?
A: Its self-cleavage is 0.23.

Q: With U9A as the variant, how does the self-cleavage read?
A: Its self-cleavage is 0.17.

Q: With U9G as the variant, how does the self-cleavage read?
A: Its self-cleavage is 0.15.

Q: Which self-cleavage does the source give for A25U U34C here?
A: Its self-cleavage is 0.13.

Q: With A12U G33C as the variant, how does the self-cleavage read?
A: Its self-cleavage is 0.03.

Q: For A6C C46U, which self-cleavage is on record?
A: Its self-cleavage is 0.89.

Q: For C8A G27A, which self-cleavage is on record?
A: Its self-cleavage is 0.17.

Q: With G5U A14U as the variant, how does the self-cleavage read?
A: Its self-cleavage is 0.07.

Q: For G21A G27C, which self-cleavage is on record?
A: The self-cleavage was 1.22.

Q: Which self-cleavage does the source give for A11C A41C here?
A: The self-cleavage was 0.01.

Q: Which self-cleavage does the source give for G2A U9C here?
A: Its self-cleavage is 0.08.

Q: With A4C G7U as the variant, how does the self-cleavage read?
A: The self-cleavage was 0.21.

Q: Which self-cleavage does the source give for G40A C46A here?
A: The self-cleavage was 0.14.

Q: Which self-cleavage does the source give for A16U C31A here?
A: The self-cleavage was 0.21.

Q: For G7U G21A, which self-cleavage is on record?
A: Its self-cleavage is 0.14.

Q: For G21A C31G, which self-cleavage is on record?
A: Its self-cleavage is 0.13.

Q: Which self-cleavage does the source give for A4C A12G here?
A: The self-cleavage was 0.06.

Q: For U28G C46G, which self-cleavage is on record?
A: Its self-cleavage is 0.99.

Q: For U34A C46U, which self-cleavage is on record?
A: The self-cleavage was 0.09.

Q: With U9C C45U as the variant, how does the self-cleavage read?
A: Its self-cleavage is 0.03.

Q: With C10G A39G as the variant, how does the self-cleavage read?
A: Its self-cleavage is 0.03.

Q: With C18G A25U as the variant, how does the self-cleavage read?
A: The self-cleavage was 0.51.

Q: With G33C C37A as the variant, how does the self-cleavage read?
A: Its self-cleavage is 0.03.

Q: For G33A C42A, which self-cleavage is on record?
A: Its self-cleavage is 0.08.

Q: With G7A A24U as the variant, how does the self-cleavage read?
A: Its self-cleavage is 0.16.

Q: Which self-cleavage does the source give for G17U G44C here?
A: Its self-cleavage is 0.05.

Q: Which self-cleavage does the source give for A4U G5A here?
A: Its self-cleavage is 0.1.

Q: With A12U G22C as the variant, how does the self-cleavage read?
A: The self-cleavage was 0.26.

Q: Which self-cleavage does the source give for C10G C13G here?
A: The self-cleavage was 0.08.

Q: With U34C U43C as the variant, how does the self-cleavage read?
A: Its self-cleavage is 0.04.

Q: With C3G G33U as the variant, how does the self-cleavage read?
A: The self-cleavage was 0.2.

Q: For U9G G33C, which self-cleavage is on record?
A: The self-cleavage was 0.05.

Q: For C18A A25U, which self-cleavage is on record?
A: The self-cleavage was 1.21.

Q: With C10G G40U as the variant, how does the self-cleavage read?
A: Its self-cleavage is 0.02.

Q: With A14C C37A as the variant, how does the self-cleavage read?
A: The self-cleavage was 0.08.

Q: For C31U G40A, which self-cleavage is on record?
A: Its self-cleavage is 0.04.

Q: For C31A G35U, which self-cleavage is on record?
A: Its self-cleavage is 0.06.

Q: Which self-cleavage does the source give for G22U U43C here?
A: Its self-cleavage is 0.18.

Q: Which self-cleavage does the source give for G5A C42A here?
A: Its self-cleavage is 0.13.

Q: With A16G A41U as the variant, how does the self-cleavage read?
A: The self-cleavage was 0.16.

Q: For G33A A41U, which self-cleavage is on record?
A: Its self-cleavage is 0.11.

— the RNAGym collection of RNA variant scans (doi:10.7554/elife.90254)
